Source: paper doi:10.1101/2020.08.17.254268

Molecular target: CeOSM-3 kinesin-2 motor, SNAP-tagged and labelled (CeOSM-3^SNAP647) (C. elegans) (UniProt P46873)
UniProt P46873, sequence (P46873 whole entry): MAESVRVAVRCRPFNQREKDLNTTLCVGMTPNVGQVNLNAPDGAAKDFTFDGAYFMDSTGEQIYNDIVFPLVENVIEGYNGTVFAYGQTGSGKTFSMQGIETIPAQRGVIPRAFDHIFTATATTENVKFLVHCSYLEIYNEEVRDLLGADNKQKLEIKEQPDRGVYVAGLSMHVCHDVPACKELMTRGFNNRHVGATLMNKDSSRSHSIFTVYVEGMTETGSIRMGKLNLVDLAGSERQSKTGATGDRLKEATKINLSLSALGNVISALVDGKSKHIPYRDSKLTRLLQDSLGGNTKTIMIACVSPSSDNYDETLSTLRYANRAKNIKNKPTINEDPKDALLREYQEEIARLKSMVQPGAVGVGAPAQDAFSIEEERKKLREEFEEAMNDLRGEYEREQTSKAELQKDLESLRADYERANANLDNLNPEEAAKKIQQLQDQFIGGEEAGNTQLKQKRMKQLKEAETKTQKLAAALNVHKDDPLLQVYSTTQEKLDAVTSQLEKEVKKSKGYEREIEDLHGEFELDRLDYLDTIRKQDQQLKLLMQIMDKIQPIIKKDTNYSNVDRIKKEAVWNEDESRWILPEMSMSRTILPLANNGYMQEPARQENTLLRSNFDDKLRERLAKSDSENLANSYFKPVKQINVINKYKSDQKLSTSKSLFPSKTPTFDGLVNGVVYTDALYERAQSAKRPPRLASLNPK

For “MmIFT-52^GFP/IFT-70^SNAP647 adaptor (from UniProt Q62559 1-426; Q99J38 1-664) (complex)”, the runlength of CeOSM-3 with MmIFT-52/IFT-70 in the single-molecule transport assay was 3 μm and the velocity of CeOSM-3 with MmIFT-52/IFT-70 in the single-molecule transport assay was 1.72 μm/s.
